Patent US20200247855A1, “THERAPY AND DIAGNOSTICS” (OXFORD UNIVERSITY INNOVATION LIMITED, priority 2017, published 2020)
Changes are numbered by the printed parent chain. “Also recorded” adds a separate entry of the source.

Columns and labels:
CCL20_HUMAN = CCL20_HUMAN (Homo sapiens, UniProt P78556); assay: Yeast surface display (YSD) FACS binding
Experimental: (§1) Table 1. Tick CKBPs described in PCT/GB2017/050563 and [17]. Tick peptide sequences isolated in yeast surface display fluorescent-activated cell sorting (FACS) screens using a labelled chemokine. Identity with Evasin-1, 4 or 3 was calculated using BLAST. Abbreviations: IXORI—Ixodes ricinus, RHISA—Rhipicephalus sanguineus, AMBMA—Amblyomma maculatum, AMBPA—Amblyomma parvum, AMBTR—Amblyomma triste, AMBAM—Amblyomma americanum, AMBCA—Amblyomma cajennense, RHIPU—Rhipicephalus pulchellus. Table 2A-C. Binding characteristics of tick CKBPs previously disclosed (PCT/GB2017/050563 and [17]). All members of the human chemokine family[164] are listed in column 1. Binding to human chemokines was determined for 14 tick CKBPs using biolayer interferometry (BLI) with calculated Kd shown as Molar (Moles/Litre). Binding data for 17 other novel tick CKBPs was assayed using yeast surface display[17,166],with positive binding results shown as “YES”. For biolayer interferometry, His-tagged purified tick CKBP was bound to a Ni-NINTA sensor on an OctetRed® 384 system, and then binding to each chemokine listed (with the exception of CCL25, CCL26, CXCL16, CXCL17, CXCL4L1, XCL2) was assayed in a cross-binding screen at a chemokine concentration of 300 nM as described. For those chemokines showing binding to a tick CKBP in the cross-binding screen, binding assays were repeated using different doses of chemokine. Association, equilibrium and dissociation data were analysed using Octet software to create corresponding fitted curves, and used to calculate Kd. For yeast surface display, (YSD) background fluorescence was controlled for by using either an empty vector or by omitting the chemokine (i.e. using streptavidin-Alexa647 alone). An arbitrary threshold of >3 fold over background mean fluorescence intensity was chosen to describe confirmed re-tests. Where binding was detected data are indicated as “YES”. […] For yeast surface display data, empty cells represent chemokines that were not tested. Binding data published in relation to previously described tick CKBPs (Evasins-1, 4 and 3) is also shown for comparison in each of FIGS. 2A-C, with the relevant data obtained from publications: [20-22,32]. Table 3: Neutralisation of human chemokines by tick CKBPs previously disclosed (PCT/GB2017/050563 and [17]). Neutralising activity was determined using a quantitative THP1 cell migration assay in a 96-well Boyden chamber with chemokine in the bottom chamber as described. Cells migrating through to the bottom chamber at 4 hours were counted using flow cytometry in a 96 well plate format. IC50 for neutralisation was determined at the chemokine EC80 dose as determined using a range of tick CKBP concentrations. Data was analysed using GraphPad Prism to determine IC50, which is shown as Molar (Moles/Litre). Empty cells represent experiments not done. Table 4—Other previously described tick CKBPs. Tick CKBPs that were also described in PCT/GB2017/050563 and Singh et al. are indicated in “Notes”. Table 5.—Novel tick CKBPs of the invention. Table 6. […] The peptide sequence prefix indicates the identity, and suffix indicate the tick species as follows: AMBCA, Amblyomma cajennense and IXORI, Ixodes ricinus. […] Certain tick peptides e.g. P1074_IXORI were recovered from screens performed with more than one chemokine. Individual yeast clones recovered from the library were re-tested using a FACS (fluorescence activated cell sorting), experiment. The binding of the peptide to the chemokine was assayed by measuring the percent (%), of yeast cells expressing the given peptide that exceeded a background threshold set by measuring the fluorescence of the yeast library pool treated with streptavidin-[…] alone. When more than one independent yeast clone was isolated for a given peptide-chemokine combination, the mean percent shift was calculated and reported in column 3. […]

CXCL12_HUMAN = CXCL12_HUMAN (Homo sapiens, UniProt P48061); assay: Yeast surface display (YSD) FACS binding
Experimental: as §1

CCL17_HUMAN = target: T1, CCL17_HUMAN (Homo sapiens, UniProt Q92583); assay: Yeast surface display (YSD) FACS binding
T1 sequence (Q92583 24-94): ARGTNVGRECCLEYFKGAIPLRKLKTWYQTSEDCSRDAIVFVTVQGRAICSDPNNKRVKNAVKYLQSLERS
Experimental: as §1

CXCL9_HUMAN = target: T2, CXCL9_HUMAN (Homo sapiens, UniProt Q07325); assay: Yeast surface display (YSD) FACS binding; conditions: FACS re-test; mean percent shift where several clones
T2 sequence (Q07325 23-125): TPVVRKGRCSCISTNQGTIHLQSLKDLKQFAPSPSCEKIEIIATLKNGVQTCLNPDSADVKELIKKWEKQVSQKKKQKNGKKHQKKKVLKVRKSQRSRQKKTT
Experimental: as §1

chemokines = conditions: list of chemokines bound, from the literature [18,20-22]; cited from earlier work
CCL7_HUMAN = CCL7_HUMAN (Homo sapiens, UniProt P80098); assay: Biolayer interferometry (BLI) binding
Experimental: as §1

CCL3_HUMAN = target: T3, CCL3_HUMAN (Homo sapiens, UniProt P10147); assay: Biolayer interferometry (BLI) binding
T3 sequence (P10147 24-92): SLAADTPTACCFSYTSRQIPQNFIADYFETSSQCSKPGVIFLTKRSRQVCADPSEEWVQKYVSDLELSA
Experimental: as §1

CCL13_HUMAN = CCL13_HUMAN (Homo sapiens, UniProt Q99616); assay: Biolayer interferometry (BLI) binding
Experimental: as §1

CCL4_HUMAN = target: T4, CCL4_HUMAN (Homo sapiens, UniProt P13236); assay: Biolayer interferometry (BLI) binding
T4 sequence (P13236 24-92): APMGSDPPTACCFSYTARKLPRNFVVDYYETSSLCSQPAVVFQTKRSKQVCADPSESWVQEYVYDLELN
Experimental: as §1

CCL14_HUMAN = target: T5, CCL14_HUMAN (Homo sapiens, UniProt Q16627); assay: Biolayer interferometry (BLI) binding
T5 sequence (Q16627 20-93): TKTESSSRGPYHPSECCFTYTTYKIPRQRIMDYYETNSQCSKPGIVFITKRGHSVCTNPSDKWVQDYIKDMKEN
Experimental: as §1

CCL16_HUMAN = target: T6, CCL16_HUMAN (Homo sapiens, UniProt O15467); assay: Biolayer interferometry (BLI) binding
T6 sequence (O15467 24-120): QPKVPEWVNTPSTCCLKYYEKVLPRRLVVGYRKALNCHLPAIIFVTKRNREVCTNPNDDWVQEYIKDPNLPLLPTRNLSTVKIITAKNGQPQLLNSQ
Experimental: as §1

CCL2_HUMAN = CCL2_HUMAN (Homo sapiens, UniProt P13500); assay: Biolayer interferometry (BLI) binding
Experimental: as §1

CCL4L1_HUMAN = target: T7, CCL4L1_HUMAN (Homo sapiens, UniProt Q8NHW4); assay: Biolayer interferometry (BLI) binding
T7 sequence (Q8NHW4 24-92): T4 sequence (P13236 24-92) with S47G
Experimental: as §1

CCL18_HUMAN = target: T8, CCL18_HUMAN (Homo sapiens, UniProt P55774); assay: Biolayer interferometry (BLI) binding
T8 sequence (P55774 21-89): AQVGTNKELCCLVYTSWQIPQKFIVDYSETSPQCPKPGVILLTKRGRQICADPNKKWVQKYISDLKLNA
Experimental: as §1

CCL8_HUMAN = target: T9, CCL8_HUMAN (Homo sapiens, UniProt P80075); assay: Biolayer interferometry (BLI) binding; conditions: read-out: Kd, CCL8_HUMAN
T9 sequence (P80075 24-99): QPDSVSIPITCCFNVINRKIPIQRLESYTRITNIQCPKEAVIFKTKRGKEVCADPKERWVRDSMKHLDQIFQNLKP
Experimental: as §1

CCL1_HUMAN = target: T10, CCL1_HUMAN (Homo sapiens, UniProt P22362); assay: Biolayer interferometry (BLI) binding
T10 sequence (P22362 24-96): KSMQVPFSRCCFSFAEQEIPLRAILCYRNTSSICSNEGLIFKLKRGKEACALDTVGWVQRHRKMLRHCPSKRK
Experimental: as §1

CCL3L1_HUMAN = CCL3L1_HUMAN (Homo sapiens, UniProt P16619); assay: Biolayer interferometry (BLI) binding
Experimental: as §1

CCL11_HUMAN = CCL11_HUMAN (Homo sapiens, UniProt P51671); assay: Biolayer interferometry (BLI) binding
Experimental: as §1

CXCL8_HUMAN = target: T11, CXCL8_HUMAN (Homo sapiens, UniProt P10145); assay: Yeast surface display (YSD) FACS binding; set-up: label (chemical); conditions: yeast surface display
T11 sequence (P10145 21-99): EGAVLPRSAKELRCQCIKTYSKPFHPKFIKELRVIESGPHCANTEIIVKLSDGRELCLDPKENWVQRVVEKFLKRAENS
Experimental: as §1

CCL5_HUMAN = target: T12, CCL5_HUMAN (Homo sapiens, UniProt P13501); assay: Yeast surface display (YSD) FACS binding
T12 sequence (P13501 24-91): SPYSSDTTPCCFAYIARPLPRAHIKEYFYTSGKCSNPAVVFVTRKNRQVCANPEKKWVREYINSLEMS
Experimental: as §1

Chain of CCL20_HUMAN (P78556 27-96): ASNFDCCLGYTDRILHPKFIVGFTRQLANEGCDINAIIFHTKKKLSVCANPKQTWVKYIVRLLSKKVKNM
Chain of CXCL12_HUMAN (P48061 22-93): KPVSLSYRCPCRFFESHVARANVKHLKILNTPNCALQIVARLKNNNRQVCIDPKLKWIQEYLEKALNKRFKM
Chain of CCL11_HUMAN (P51671 24-97): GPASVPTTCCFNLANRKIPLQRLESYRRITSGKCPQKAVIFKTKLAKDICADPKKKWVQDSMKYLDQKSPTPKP
Chain of CCL3L1_HUMAN (P16619 24-93): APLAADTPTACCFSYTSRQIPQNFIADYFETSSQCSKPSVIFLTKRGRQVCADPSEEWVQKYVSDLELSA
Chain of CCL7_HUMAN (P80098 24-99): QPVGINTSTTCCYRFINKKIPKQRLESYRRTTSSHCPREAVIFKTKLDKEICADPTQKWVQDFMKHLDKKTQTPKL
Chain of CCL2_HUMAN (P13500 24-99): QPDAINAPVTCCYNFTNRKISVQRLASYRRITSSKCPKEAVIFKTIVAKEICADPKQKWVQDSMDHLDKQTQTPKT
Chain of CCL13_HUMAN (Q99616 17-98): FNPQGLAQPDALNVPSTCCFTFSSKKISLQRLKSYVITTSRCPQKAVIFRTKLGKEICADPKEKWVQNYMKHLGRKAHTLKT

B1: P1015_AMBCA: tick CKBP, Amblyomma cajennense (protein)
chain: EEAPGPAPGCGEPEPTPPKPRRHGIVTNVNSCNSTILVWNGKEFPALCKVRCPHKSYRVSDFEPCLKFTNRRFLQERKDETPYKCKLGFCRHGTCITSEHSRKVPCKVPADRLDPSE
modifications: Amblyomma cajennense
- Binding to CCL20_HUMAN, YSD (CCL20_HUMAN): YES (An arbitrary threshold of >3 fold over background mean fluorescence intensity was chosen to describe confirmed re-tests. Where binding was detected data are indicated as “YES”)
- Binding to CXCL12_HUMAN, YSD (CXCL12_HUMAN; yeast surface display): YES (An arbitrary threshold of >3 fold over background mean fluorescence intensity was chosen to describe confirmed re-tests. Where binding was detected data are indicated as “YES”)

B2: P1252_AMBAM: tick CKBP, Amblyomma americanum (protein, listed as Amblyomma americanum)
chain: RGGAASVPANASIPGCGDAQTTPAAPEDQPKHYVVYRDGNGCEVKIIGTWMTTEDYNCLPDTFRKNRAPHGKVKLPASCKKTCGNAVQNLKDGTPCRKVFGDLGRRRNLIKNGCLVGACQSGLCVSGNRTISCYIPPNSTDTRATPGSFAE
- Binding to CCL20_HUMAN, YSD (CCL20_HUMAN): YES (An arbitrary threshold of >3 fold over background mean fluorescence intensity was chosen to describe confirmed re-tests. Where binding was detected data are indicated as “YES”)
- Binding to CCL17_HUMAN, YSD (CCL17_HUMAN): YES (An arbitrary threshold of >3 fold over background mean fluorescence intensity was chosen to describe confirmed re-tests. Where binding was detected data are indicated as “YES”)

B3: P1080_IXORI: novel CXC-binding tick CKBP, Ixodes ricinus (protein, listed as Ixodes ricinus)
chain: SAGSKGSSAPQSSGDSVVAEFCDTNCTMKKDGKWTECNGDCFCVHVGNETVGRCMRLDGDYDYTSSKTTRRNKKTRNGLCRLDRNRTTVDYPERNTREP
- Chemokines bound in yeast surface display and % cells over threshold fluorescence: CXCL12_HUMAN (CXCL12_HUMAN; FACS re-test, mean percent shift where several clones): CXCL12_HUMAN 53%;
- Chemokines bound in yeast surface display and % cells over threshold fluorescence: CXCL9_HUMAN (CXCL9_HUMAN): CXCL9_HUMAN 49%

B4: P467_RHIPU: tick CKBP (evasin), Rhipicephalus pulchellus; RPU-01 stated identical (protein, listed as Rhipicephalus pulchellus)
chain: AEKSLDSDSSGEDYELWTQGCPFLVAENRTGFGTTVSCQHNCNGAIEKVPEGEPCYTIGEDGLGRMKLNLPYNCSLGECSGGVCVPNGRSDVCFKRTWEENNKAMA
- Previously described chemokine binding (chemokines): CCL11, CCL24,; also recorded: CCL26, CCL2,; also recorded: CCL8, CCL7
- Kd (CCL7_HUMAN): 2.15 nM
- Kd (CCL3_HUMAN): 0.363 nM
- Kd (CCL13_HUMAN): 2.56 nM
- Kd (CCL4_HUMAN): 13.6 nM
- Kd (CCL14_HUMAN): 4.13 nM
- Kd (CCL16_HUMAN): 14.1 nM
- Kd (CCL2_HUMAN): 0.001 nM
- Kd (CCL4L1_HUMAN): 4.72 nM
- Kd (CCL18_HUMAN): 16.6 nM
- Kd (CCL8_HUMAN): 2.85 nM
- Kd (CCL1_HUMAN): 53.4 nM
- Kd (CCL3L1_HUMAN): 0.524 nM
- Kd (CCL11_HUMAN): 1.4 nM

B5: P1074_IXORI: novel CXC-binding tick CKBP, Ixodes ricinus (protein, listed as Ixodes ricinus)
chain: GSKESSAHQSSDDSIKAEFCDAKCTMKTDGKWTQCHGGCFCVHVGNETEGRCMRLDGDYDYPSTQPEE
- Chemokines bound in yeast surface display and % cells over threshold fluorescence: CXCL9_HUMAN (CXCL9_HUMAN): CXCL9_HUMAN 35%

B6: P993_AMBPA: tick CKBP, Amblyomma parvum (protein, listed as Amblyomma parvum)
chain: HRHYDPNEPCLIAGLKTPRDALPAGCRYDCMIKKNQKLRDGLLCLDVPEKVVKRMVNYLNYSCPLGTCRKGICKRKHRNVRCQKYPVFYMSPPK
- Binding to CXCL8_HUMAN, YSD (CXCL8_HUMAN): YES (An arbitrary threshold of >3 fold over background mean fluorescence intensity was chosen to describe confirmed re-tests. Where binding was detected data are indicated as “YES”)
- Binding to CCL5_HUMAN, YSD (CCL5_HUMAN): YES (An arbitrary threshold of >3 fold over background mean fluorescence intensity was chosen to describe confirmed re-tests. Where binding was detected data are indicated as “YES”)
- Binding to CCL20_HUMAN, YSD (CCL20_HUMAN): YES (An arbitrary threshold of >3 fold over background mean fluorescence intensity was chosen to describe confirmed re-tests. Where binding was detected data are indicated as “YES”)
- Binding to CCL17_HUMAN, YSD (CCL17_HUMAN): YES (An arbitrary threshold of >3 fold over background mean fluorescence intensity was chosen to describe confirmed re-tests. Where binding was detected data are indicated as “YES”)
